Measured values reported in PMC9468356, “Kinetic compartmentalization by unnatural reaction for itaconate production” (Nature Communications, 2022).
Residue numbers refer to the chain shown, from its start. Names may count otherwise.

B1: PrpD (Escherichia coli K-12; G111T/W110V) (protein)
chain: SAQINNIRPEFDREIVDIVDYVMNYEISSKVAYDTAHYCLLDTLGCGLEALEYPACKKLLGPIVPGTVVPNGVRVPGTQFQLDPVQAAFNIGAMIRWLDFNDTWLAAEVTHPSDNLGGILATADWLSRNAVASGKAPLTMKQVLTAMIKAHEIQGCIALENSFNRVGLDHVLLVKVASTAVVAEMLGLTREEILNAVSLAWVDGQSLRTYRHAPNTGTRKSWAAGDATSRAVRLALMAKTGEMGYPSALTAPVWGFYDVSFKGESFRFQRPYGSYVMENVLFKISFPAEFHSQTAVEAAMTLYEQMQAAGKTAADIEKVTIRTHEACIRIIDKKGPLNNPADRDHCIQYMVAIPLLFGRLTAADYEDNVAQDKRIDALREKINCFEDPAFTADYHDPEKRAIANAITLEFTDGTRFEEVVVEYPIGHARRRQDGIPKLVDKFKINLARQFPTRQQQRILEVSLDRARLEQMPVNEYLDLYVI
notes: 6xHis-tagged, cloned from E. coli W into pACYCduet-1, purified anaerobically by His-tag kit
B2: PrpD (Escherichia coli K-12; G111T/I331L/W110V) (protein)
chain: B1 chain with I330L
notes: as for B1
B3: PrpD (Escherichia coli K-12) (protein)
chain: B1 chain with V109W, T110G
notes: as for B1
B4: PrpD (Escherichia coli K-12; I331L/W110V) (protein)
chain: B1 chain with T110G, I330L
notes: as for B1

What follows are proteins tested on CC(C(=O)O)C(O)(CC(=O)O)C(=O)O (assay: HPLC end-point assay). Details: 2 mM Tris-HCl, 37 °C, 10 min, 0.1-1 mM substrate.
Format: biochemical, Escherichia coli
Source text: (§1) HPLC end-point assay on PrpD

Protein	Km [µM]	kcat [s⁻¹]	kcat/Km [M⁻¹ s⁻¹]
B1	1930 ± 210	0.023 ± 0.008	12 ± 6
B2	1960 ± 210	0.024 ± 0.008	13 ± 5
B3	960 ± 850	0.045 ± 0.025	75 ± 54
B4	1720 ± 540	0.035 ± 0.009	21 ± 2

The proteins below were run on O=C(O)/C=C(/CC(=O)O)C(=O)O (assay: HPLC end-point assay). Details: 2 mM Tris-HCl, 37 °C, 10 min, 0.05-1.0 mM substrate.
Format: biochemical, Escherichia coli
Source text: as §1

Protein	Km [µM]	kcat [s⁻¹]	kcat/Km [M⁻¹ s⁻¹]
B1	1720 ± 250	172 ± 20	101000 ± 3180
B2	720 ± 100	81.8 ± 14.1	114000 ± 14600
B3	700 ± 100	119 ± 13.4	171000 ± 5650
B4	1520 ± 80	96.3 ± 4.55	63600 ± 3330
